Results taken from article PMC9205905, “Core and rod structures of a thermophilic cyanobacterial light-harvesting phycobilisome” (Nature Communications, 2022).

Target: the molecule itself
Experiment: cryo-EM structure; PC rods dissociated from intact PBSs on the grid by dilution with 10 mM phosphate buffer (phosphate below 0.5 M); single-particle cryo-EM, no symmetry, 4.2 Å

B1: PC monomer (CpcA/CpcB αβ monomer) (complex)
chain 1: not shown
chain 2: MLDAFAKVVAQADARGEFLTNAQFDALSNLVKEGNKRLDAVNRITSNASTIVANAARALFAEQPQLIQPGGNAYTNRRMAACLRDMEIILRYVTYAILAGDSSVLDDRCLNGLRETYQALGTPGSSVAVAIQKMKDAAIAIANDPNGITPGDCSALMSEIAGYFDRAAAAVA
modifications: phycocyanobilin (PCB) at residue 84 (α84) | phycocyanobilin (PCB) at residues 84 and 155 (β84, β155)
stoichiometry N: 6
